# Laboratory results taken from the supplement of paper PMC7125110.
# ± gives the standard error. Fewer inactive variants are shown than the library holds.
# B1: glmS ribozyme (parent)
# chain: AUAAAAGCGCCAGAACUACAGAAAUGUAGUUGACGAGGAGGAGGUUUAUCGAAUUUUCGGCGGAUGCCUCCAAA
# Variants of: B1
# Assay: self-cleavage kobs at 2500 uM GlcN6P; higher = faster cleavage; RNA array
# Conditions: with glucosamine-6-phosphate
# Summary of the method: (§1)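 Tiles bearing barcoded ribozyme variants, transcribed in situ by E. coli RNA polymerase on sequenced MiSeq chips, were imaged over ~14 h at 37 °C using a hybridised Cy3 probe. Glucosamine-6-phosphate was supplied at 40 μM to 10 mM in HEPES/KCl/Mg(OAc)2 buffer. kobs came from one- or two-exponential decay fits to normalised per-tile medians, and weighted Michaelis–Menten fits then provided kcat and KM.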
row,Variant,self-cleavage kobs at 2500 uM GlcN6P [s⁻¹]
1,C16A G29A C70A,6.39e-05 ± 2.4e-05
2,A12U U54A G60C U65A,< 1e-05
3,A15C A42G C70G,7.41e-05 ± 1.9e-05
4,C16U G37U G41A,< 1e-05
5,G13C G29C U55A,8.97e-05 ± 2.5e-05
6,A14U C50U G63C,< 1e-05
7,G13U A42U C50U,< 1e-05
8,A14C U45G C68U,3.4e-05 ± 1.6e-05
9,A15G A64C C71U,7.46e-05 ± 1.9e-05
10,A15G G32U C71G,8.85e-05 ± 2.5e-05
11,A14C U31A A42C A48G C71G,< 1e-05
12,A14U U30G U31C A53U,0.00047 ± 0.00013
13,G13U C67U C70U,6.19e-05 ± 2.3e-05
14,A12C G29U U65A,0.000175 ± 4.1e-05
15,C16A G41C C70U,5.88e-05 ± 1.8e-05
16,A14U G32C C67A,3.21e-05 ± 1.6e-05
17,G13A U30A G32U,7.99e-05 ± 1.7e-05
18,A14G A39U C67A,0.0121 ± 0.003
19,A15C U57A C67G,5.01e-05 ± 2.4e-05

row,Variant,self-cleavage kobs at 2500 uM GlcN6P [s⁻¹]
1,A15U A33U G59U,< 1e-05
2,A12G G44A C70A,< 1e-05
3,C16U G32C U54C,5.6e-05 ± 2.1e-05
4,A12C U30A C50U G51C,< 1e-05
5,G13C G38U U47A C70G,< 1e-05
6,A15G G60U G63C,< 1e-05
7,A12G G32U A36U U49A C50G,< 1e-05
8,A12U U31G U69A,0.000111 ± 4.9e-05
9,A14G U46C A48C C68U,8.06e-05 ± 3.1e-05
10,A14G U55G U69A,0.000475 ± 8.8e-05
11,G13C G37U C58U G60A,< 1e-05
12,A14C C16A A42G,5.08e-05 ± 2e-05
13,A14U U47A C71G,0.000172 ± 6.8e-05
14,A15G U57A C68A,5.07e-05 ± 1.9e-05
15,C16U U57A C70G,5.1e-05 ± 2.1e-05
16,A14U C16G U65A,5.56e-05 ± 1.9e-05
17,A15U G37A G66C,7.17e-05 ± 1.8e-05
18,G13C G35U A52C,< 1e-05
19,G13A G40C G60A U65A,< 1e-05

# Variants of: B1
# Assay: self-cleavage kobs at 10000 uM GlcN6P; higher = faster cleavage; RNA array
# Conditions: with glucosamine-6-phosphate
# Summary of the method: as §1
row,Variant,self-cleavage kobs at 10000 uM GlcN6P [s⁻¹]
1,A15C A42G C70G,4.12e-05 ± 1.7e-05
2,C16U G37U G41A,< 1e-05
3,G13U A42U C50U,< 1e-05
4,A12C G29U U65A,0.000443 ± 7.6e-05
5,A14U G32C C67A,8.69e-05 ± 2.8e-05
6,A14G U55G U69A,0.000104 ± 2.4e-05
